Measurements from patent US7605231B2, “Gelatin derivatives and high-molecular micelle comprising the derivatives” (NOF Corporation, priority 2002, dated 2009).

How the values were obtained:
trypsin = assay: In vitro stability test to enzyme: trypsin + second solution, SDS-PAGE; format: in vitro ADME; conditions: trypsin (10 U/mL) + second solution
Method: (§1) Of the various PEG-grafted gelatin derivatives prepared in Example 22, 50 mg of a gelatin derivative prepared by using 2-fold mols of PEG having a molecular weight of 5000 was dissolved in 1 ml of DDW (50 mg/mL). 500 μL of the resulting solution was added to 4.5 ml of each of a Japanese Pharmacopoeia first solution (pH 1.2), a second solution (pH 6.8), pepsin (10 U/mL)+first solution or trypsin (10 U/mL)+second solution and subjected to disintegration test. The test was carried out under the conditions based on Japanese Pharmacopoeia disintegration test. The decomposition of the gelatin was evaluated by carrying out SDS-PAGE of the sample prepared after the test. Further, 500 μL of the sample was added to 4.5 mL of DDW to prepare a control group.
(§2) 50 mg of gelatin, which was not subjected to PEG grafting, was dissolved in 1 ml of DDW. 500 μL of the resulting solution was added to 4.5 mL of each of DDW, first solution, second solution, pepsin+first solution and trypsin+second solution, respectively, and then, subjected to disintegration test. The test was carried out under the conditions based on Japanese Pharmacopoeia disintegration test. The decomposition of the gelatin was evaluated by carrying out SDS-PAGE of the sample prepared after the test.

[1] = Micelle form by affinity column (HiTrap Blue HP) that adsorbs gelatin; format: physicochemical; conditions: pH 7.4 bonding buffer, 2M NaCl elution
Method: The forms of the core and the shell of micelle were studied using affinity column, which adsorbs gelatin. Namely, HiTrap (Trade Mark) Blue HP column (manufactured by Amersham Pharmacia Co., Ltd.) was washed with 10 ml of an isotonic phosphate buffer with a pH of 7.4 and thereafter, 0.5 ml of a PEG-grafted gelatin micelle solution was applied. 5 ml of the isotonic phosphate buffer with a pH of 7.4 was used as a bonding buffer and 5 ml of a 2M aqueous sodium chloride solution was used as an elution buffer. The solution was fractionated with each 0.4 ml portions and the gelatin in each of the fractions was measured by the Lowery method.
The forms of the core and the shell of the micelle was studied using affinity column in which gelatin was adsorbed. Namely, HiTrap (Trade Mark) Blue HP column (manufactured by Amersham Pharmacia Co., Ltd.) was washed with 10 ml of an isotonic phosphate buffer with a pH of 7.4 and thereafter, 0.5 ml of a PEG-grafted gelatin micelle solution was applied. 5 ml of the pH isotonic phosphate buffer with a pH of 7.4 was used as a bonding buffer and 5 ml of a 2M aqueous sodium chloride solution was used as an elution buffer. The solution was fractionated with each 0.4 ml portions and the gelatin in each fraction was measured by the Lowery method. […]

[2] = In vitro disintegration test in Japanese Pharmacopoeia first and second solutions, SDS-PAGE; format: physicochemical
Method: as §1, §2

macrophage = assay: Test of macrophage adhesion property (SEM); format: cell-based, mouse; conditions: crosslinked with heating at 160° C. for 3 hours, cultured 24 hours
Method: 1 g of gelatin or a derivative thereof was dissolved in 10 mL of purified water while heating. This resulting polymer solution was injected into a PFA made laboratory dish and allowed to stand at 4° C. for 12 hours to conduct gelation sufficiently. The resulting gel was lyophilized and then subjected to cross-linking treatment with heating at 160° C. for 3 hours under reduced pressure in vacuum.
First, to 10-week old female ddy mouse, 2 ml of a previously sterilized Brewer's thioglycolate medium (manufactured by Difco Co.) was administered to intraperitoneal. After 5 days, the mouse was killed with blood-letting and 5 ml of PBS(−) cooled at 4° C. was administered intraperitoneal. After 5 minutes, about 4 ml of intraperitoneal effusion was recovered and was centrifuged at 8000 revolution/min for about 5 minutes to prepare a cell mass of effused macrophage. To the cell mass, 2 ml of RPMI1640 medium containing 10% FCS was added and sufficiently suspended.
Next, a specimen prepared in accordance with “the method of preparing the specimen for evaluating adhesion of macrophage” according to the above-mentioned (1) was sufficiently swelled with a RPMI1640 medium to prepare a specimen for evaluating the adhesion property of macrophage. […] Surface observation was carried out by a scanning electron microscope (Hitachi Type S-3000N) and the adhesion of macrophage was evaluated.

[3] = Critical micelle formation concentration (CMC) by PNA incorporation; format: physicochemical; conditions: isotonic phosphate buffer pH 7.4, PNA incorporation
Method: With regard to the PEG-grafted gelatin prepared, the critical micelle formation concentration (CMC) was measured. The CMC was measured by incorporating N-phenyl-1-naphtylamine (PNA) into the micelle. Using an isotonic phosphate buffer with a pH of 7.4, various concentrations—having PEG-grafted gelatin aqueous solutions were prepared. 0.1 ml of the PNA solution dissolved in methanol having a concentration of 5.0×10^−3M was added to 2 ml of the PEG-grafted gelatin solution and stirred for 2 minutes. Thereafter, the absorbance at a wavelength of 500 nm was measured using a spectrophotometer.
With regard to the PEG-grafted succinated gelatin prepared, the critical micelle forming concentration (CMC) was measured. The CMC was measured by incorporating N-phenyl-1-naphtyl amine (PNA) into the micelle. Using an isotonic phosphate buffer with a pH of 7.4, PEG-grafted succinated gelatin aqueous solutions with various concentrations were prepared. […] Thereafter, the absorbance at a wavelength of 500 nm was measured using a spectrophotometer.
Micelle solutions were prepared in accordance with the method of Example 3 from the PEG-grafted gelatin derivatives prepared in Example 22 and the CMC of each derivative was measured in accordance with Example 5.

pepsin = assay: In vitro stability test to enzyme: pepsin + first solution, SDS-PAGE; format: in vitro ADME; conditions: pepsin (10 U/mL) + first solution
Method: as §1, §2

[4] = Solubilizing of paclitaxel; format: physicochemical; conditions: 30 μL of 10 mg/ml paclitaxel in ethanol + 500 μL of 2% aqueous solution
Method: A 10 mg/ml ethanol solution of paclitaxel was prepared as (a PTX solution).
A 2% gelatin aqueous solution was prepared as a gelatin solution.

gelatin
lowering of the gelatin molecular weight (trypsin): a lowering of the gelatin molecular weight was confirmed | adsorption to affinity column [1]: adsorbed to the affinity column | lowering of the gelatin molecular weight ([2]; Japanese Pharmacopoeia first solution (pH 1.2)): a lowering of the gelatin molecular weight was confirmed | lowering of the gelatin molecular weight ([2]; Japanese Pharmacopoeia second solution (pH 6.8)): except for the control group and the second solution, a lowering of the gelatin molecular weight was confirmed | adhesion of macrophage to the surface (macrophage): tightly covered with the cells such as macrophage | CMC (whether admitted) [3]: CMC was not admitted | lowering of the gelatin molecular weight (pepsin): a lowering of the gelatin molecular weight was confirmed | appearance on mixing with paclitaxel solution [4]: white precipitation
